Laboratory results published in the supplement of paper PMC10567573.

B1: KLHL12 (parent)
chain: REESLPNLLQYVRMPLLTPRYITD
B2: MIA2 (parent)
chain: DMVSNIELPTRIHEEVYFEPSSSK

Variants of: B1
Test: protein stability index of a GFP-peptide fusion (GPS, HEK-293T) (PSI 1-6); higher = more stable
Details: c terminus: a fixed tail appended
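Further: lentivirally expressed fusions sorted by FACS into six bins by GFP to DsRed ratio, PSI derived from sequencing read proportions per bin multiplied by bin number.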

Protein stability index of substitutions, site by site:
Y21: P 3.15 | A 3.59 | Q 3.85 | C 2.95 | M 2.97 | G 3.4 | K 3.93 | H 3.08 | I 2.84 | L 2.62 | S 3.37
L5: D 3.15 | N 2.52 | W 2.21 | Q 2.81 | G 2.67 | R 2.52 | P 2.75 | C 2.79 | I 1.83 | V 2.59 | A 3.47 | F 2.16 | Y 2.61 | T 2.79
V12: A 3.16 | D 3.7 | W 1.81 | N 3.1 | R 3 | M 2.33 | H 2.74 | I 2.77 | Y 2.6 | T 3.01 | G 2.91 | S 3.16 | E 3.85
S4: C 2.71 | W 1.9 | F 2.15 | L 1.89 | V 1.82 | E 2.72 | A 2.65 | D 2.56 | T 2.34 | P 2.79 | K 2.41 | Y 2.45 | N 1.93
D24: P 2.04 | C 1.81 | L 1.71 | W 2.11 | F 2.04 | H 2.06 | R 2.75 | M 1.6 | Y 2.22 | T 2.17 | I 3.11 | K 2.64 | Q 2.5 | G 2.28 | A 1.84 | S 2.01
L17: D 3.43 | E 3.45 | R 3.48 | W 2.33 | C 2.85 | P 2.54 | G 2.77 | K 3.51 | N 3.42 | M 2.63 | S 2.87 | T 2.54 | I 2.54
R20: C 2.12 | M 1.97 | K 3.48 | E 2.7 | I 2.68 | S 2.72 | T 2.15 | F 1.95 | D 3.03 | H 2.56 | G 3.29 | Q 2.54 | L 2.55 | P 2.21
P15: L 4.9 | G 3.67 | V 2.34 | K 1.57 | T 2.65 | I 3.9 | S 3.06 | A 1.58 | W 2 | Y 4.19 | N 2.42 | E 2.54 | D 2.01 | H 2.65 | F 2.24
I22: N 2.71 | A 2.76 | M 1.94 | T 3.39 | L 2.4 | K 3.71 | S 2.72 | W 1.93 | H 2.86 | C 2.55 | P 3.71 | Q 2.54 | F 1.93 | E 3.22 | Y 2.34
P6: Q 1.91 | K 1.71 | A 2.66 | D 2.51 | N 2.45 | M 2.11 | R 2.59 | I 1.95 | Y 2.58 | W 2.11 | S 2.31 | V 1.6 | F 1.93 | L 2
R1: I 1.83 | M 2.25 | F 2.43 | K 2.52 | N 2.72 | L 2.83 | H 2.18 | E 2.8 | Y 1.82 | P 2.16
E2: R 2.85 | C 3.52 | P 2.56 | F 2.4 | G 3.19 | Y 2.83 | T 3.35 | I 2.5 | D 2.38 | A 3.56 | W 3.14 | M 2.4
Q10: W 1.17 | F 2.22 | D 2.06 | K 2.38 | E 2.41 | C 2.39 | Y 2.16 | M 1.56 | S 2.33 | H 2.25 | I 4.07
M14: N 2.4 | A 2.42 | D 3.17 | C 2.02 | E 3.52 | T 2.97 | F 2.09 | H 2.89 | Y 2.58 | L 2.35 | W 2.13 | P 3.36 | Q 2.88 | I 2.56 | S 3.13
L16: K 2.93 | I 2.45 | W 1.6 | H 3.18 | M 2.46 | S 3.56 | P 2.77 | A 2.56 | F 2.27 | G 2.84 | T 2.75 | Q 3.12
E3: W 2.02 | K 2.78 | G 2.56 | A 2.54 | Y 1.71 | M 1.9 | H 2.23 | N 2.42 | Q 2.72 | D 2.2
N7: T 2.1 | C 2.35 | S 2.26 | V 2.07 | A 2.64 | I 1.9 | E 2.34 | Y 1.71 | K 2.73 | F 2.23 | H 2.44 | P 3.19 | R 2.3 | D 2.93 | G 2.63 | M 2.03
L8: V 2.53 | F 2.4 | M 2.69 | N 3.22 | T 3.12 | W 2.12 | K 2.98 | S 3.21 | C 2.29 | I 2.41 | A 3.24 | R 2.98 | Q 3.17 | G 2.79
Y11: G 3.52 | E 3.9 | M 2.34 | W 1.96 | S 3.33 | Q 3.42 | I 2.68 | T 3.06 | K 2.87 | L 2.09
L9: Y 2.62 | H 3.29 | W 2.49 | V 2.51 | E 3.23 | I 2.32 | K 2.57 | C 3.33 | T 3.45 | M 2.44 | P 3.07 | D 3.1 | N 3.61 | F 2.27 | S 3.36
P19: K 2.41 | F 2.17 | L 2.48 | M 2.02 | N 2.48 | V 2.22 | R 2.39 | S 2.14 | C 2.28 | Y 1.4 | G 2.75 | W 2.41 | T 2.46 | H 1.47 | A 2.74
T23: N 2.85 | Y 2.09 | V 2.04 | R 3.83 | K 3.35 | H 2.58 | A 2.9 | Q 2.65 | G 2.48 | P 2.57 | C 2.03 | W 1.7 | L 2.02 | E 2.81 | S 2.66 | D 3.12 | M 2.61
R13: A 1.49 | Q 2.31 | E 2.84 | N 2.58 | L 3.6 | F 2.06 | K 2.67 | W 2.84 | Y 2.53 | P 2.97 | H 2.38
T18: L 2.42 | W 1.55 | K 2.19 | D 2.38 | Q 2.5 | I 2.17 | F 2.46 | E 2.87 | V 1.97 | A 2.36 | H 2.52

Variants of: B2
Test: as above
Details: c terminus: a fixed tail appended

Protein stability index, by site and new letter:
Y17: N 4.32 | T 4.28 | W 4.21
S4: Y 4.01
E15: H 3.63
E19: Q 3.29
D1: I 2.36
T10: H 4.47
N5: W 4.38
V3: A 3.79
S23: R 3.56
V16: D 4.77 | W 3.73
M2: H 4.48
S21: L 3.34
E14: M 2.58 | N 3.82
